Source: patent US20250197455A1

How the values were obtained:
[1] = molecular target: BG505 N28 JCBv3 660; assay: supernatant ELISA; row BG505.RnS7Mut-N28-JCBv3-660
[2] = molecular target: BG505 N28 502 660-665; assay: supernatant ELISA; row BG505.RnS7Mut-N28-502-660-665
[3] = molecular target: 6931-DS-N28-502-660-665; assay: supernatant ELISA; row scFc-3C-6931-DS-28-502-660-665
[4] = molecular target: BG505 glycan-base trimer, VRC 7873 (4571_RnS7Mutv1-2G-3Mut-N28-JCBv3-N660-N665.667_613S_620S) (BG505-based) (HIV-1 (BG505, Clade A)); assay: supernatant ELISA; row BG505.RnS7Mut-N28-JCBv3-660-665
[5] = molecular target: protein-base BG505 trimer, BG505-RnS7Mutv1-DS-SOSIP-2G-3Mut (HIV-1 (BG505, Clade A)); assay: supernatant ELISA; row BG505-RnS(7MutV1)-2G-3mut-DS_SOSIP-scFc
[6] = molecular target: BG505 N28 JCBv2 660-665; assay: supernatant ELISA; row BG505.RnS7Mut-N28-JCBv2-660-665
[7] = molecular target: ConC glycan-base trimer, VRC 7678 (6931_DS-N28-JCBv3-N660-N665.667) (ConC based) (HIV-1 (consensus clade C, ConC)); assay: supernatant ELISA; row scFc-3C-6931-DS-28_JCB04V3-660-665
[8] = molecular target: 6931-DS-N28-JCBv3-660; assay: supernatant ELISA; row scFc-3C-6931-DS-28_JCB04V3-660

| Substance | ELISA OD450 (raw) [1] [OD450] | ELISA OD450 (raw) [2] [OD450] | ELISA OD450 (raw) [3] [OD450] | ELISA OD450 (raw) [4] [OD450] | ELISA OD450 (raw) [5] [OD450] | ELISA OD450 (raw) [6] [OD450] | ELISA OD450 (raw) [7] [OD450] | ELISA OD450 (raw) [8] [OD450] |
| --- | --- | --- | --- | --- | --- | --- | --- | --- |
| PGT145 (antibody) | 0.427 | 0.531 | 0.938 | 0.219 | 0.683 |  |  |  |
| 35O22 (antibody) | 0.728 | 0.785 | 0.916 | 0.632 | 1.01 | 0.628 | 0.954 |  |
| N6 (antibody) | 0.771 | 0.666 | 0.876 | 0.795 | 0.811 | 0.816 |  | 0.918 |
| VRC26.25 (antibody) | 0.652 | 0.555 | 0.874 | 0.564 | 0.71 | 0.544 | 0.798 | 0.979 |
| F105 (antibody) | 0.196 | 0.106 | 0.337 | 0.157 | 0.134 | 0.141 |  | 0.432 |
| VRC34.01 (antibody) | 0.648 | 0.437 | 0.718 | 0.682 | 0.783 | 0.729 | 1.05 | 0.89 |
| PGDM1400 (antibody) | 1.09 | 0.982 | 0.681 | 1.07 | 0.985 | 1.03 | 0.949 | 0.861 |
| 3BNC117 (antibody) | 1.01 | 0.841 | 1.03 | 0.981 | 1.04 | 0.952 |  | 1.13 |
| PGT122 (antibody) | 0.906 | 0.864 |  | 0.874 | 1.05 | 1 | 1.48 |  |
